According to paper PMC4784688 (Developmental cell, 2015):

Assays:
Slitrk5 = biological target: T1, Slitrk5 (UniProt O94991); assay: PTPδ-Fc dissociation from cells
T1 chain: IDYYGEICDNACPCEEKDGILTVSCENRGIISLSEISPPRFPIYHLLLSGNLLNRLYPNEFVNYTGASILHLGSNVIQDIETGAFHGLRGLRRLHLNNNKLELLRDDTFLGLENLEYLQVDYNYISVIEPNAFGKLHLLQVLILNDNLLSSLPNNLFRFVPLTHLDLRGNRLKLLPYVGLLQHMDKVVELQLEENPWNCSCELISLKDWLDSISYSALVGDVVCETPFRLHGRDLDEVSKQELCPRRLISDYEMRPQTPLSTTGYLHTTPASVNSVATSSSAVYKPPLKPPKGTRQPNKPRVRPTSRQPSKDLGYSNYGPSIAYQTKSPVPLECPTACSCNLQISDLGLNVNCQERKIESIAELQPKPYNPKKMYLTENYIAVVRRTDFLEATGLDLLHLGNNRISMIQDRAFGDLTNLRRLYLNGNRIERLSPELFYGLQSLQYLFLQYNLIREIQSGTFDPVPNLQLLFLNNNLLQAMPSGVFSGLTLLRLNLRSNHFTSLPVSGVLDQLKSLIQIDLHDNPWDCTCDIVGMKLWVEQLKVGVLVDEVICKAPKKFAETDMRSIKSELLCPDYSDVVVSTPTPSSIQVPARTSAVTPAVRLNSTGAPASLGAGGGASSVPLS

[1] = biological target: T2, soluble purified PTPδ ectodomain fused to the Fc region of human immunoglobulin (UniProt Q64487 21-1266); assay: immunostaining of cells or tissue
T2 sequence (looked up): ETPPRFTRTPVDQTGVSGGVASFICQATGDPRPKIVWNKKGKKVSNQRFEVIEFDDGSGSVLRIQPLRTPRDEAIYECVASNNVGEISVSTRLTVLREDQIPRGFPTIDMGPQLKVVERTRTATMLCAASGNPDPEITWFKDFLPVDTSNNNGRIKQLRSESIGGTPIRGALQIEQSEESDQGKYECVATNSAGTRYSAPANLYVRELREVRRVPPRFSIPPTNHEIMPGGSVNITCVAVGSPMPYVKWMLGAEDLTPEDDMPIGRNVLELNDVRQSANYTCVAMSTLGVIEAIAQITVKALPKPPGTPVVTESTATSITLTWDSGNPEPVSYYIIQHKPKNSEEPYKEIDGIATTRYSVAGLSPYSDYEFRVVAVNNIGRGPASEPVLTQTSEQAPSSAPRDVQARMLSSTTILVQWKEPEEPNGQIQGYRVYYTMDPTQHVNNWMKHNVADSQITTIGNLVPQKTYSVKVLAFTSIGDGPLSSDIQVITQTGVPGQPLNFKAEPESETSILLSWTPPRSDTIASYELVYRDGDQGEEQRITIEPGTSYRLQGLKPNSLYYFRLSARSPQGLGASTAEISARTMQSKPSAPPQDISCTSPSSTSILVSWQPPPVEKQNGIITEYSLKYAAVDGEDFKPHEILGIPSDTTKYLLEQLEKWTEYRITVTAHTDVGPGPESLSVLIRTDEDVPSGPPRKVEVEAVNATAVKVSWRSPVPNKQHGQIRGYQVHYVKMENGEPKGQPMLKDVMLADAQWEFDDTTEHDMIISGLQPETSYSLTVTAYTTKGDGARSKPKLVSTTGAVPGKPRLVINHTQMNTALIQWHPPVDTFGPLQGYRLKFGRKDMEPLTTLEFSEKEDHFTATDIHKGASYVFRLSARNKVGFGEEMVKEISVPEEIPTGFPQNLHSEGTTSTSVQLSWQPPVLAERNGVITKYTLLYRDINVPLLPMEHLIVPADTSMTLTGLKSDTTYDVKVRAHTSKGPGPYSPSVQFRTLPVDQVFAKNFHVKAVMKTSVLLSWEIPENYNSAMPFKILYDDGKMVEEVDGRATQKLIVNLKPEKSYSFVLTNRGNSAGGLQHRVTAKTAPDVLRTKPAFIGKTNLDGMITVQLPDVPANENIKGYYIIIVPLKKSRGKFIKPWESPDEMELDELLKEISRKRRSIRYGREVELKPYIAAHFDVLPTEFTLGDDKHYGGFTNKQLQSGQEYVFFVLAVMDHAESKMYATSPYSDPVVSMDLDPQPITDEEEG

B1: BDNF (protein)
chain: HSDPARRGELSVCDSISEWVTAADKKTAVDMSGGTVTVLEKVPVSKGQLKQYFYETKCNPMGYTKEGCRGIDKRHWNSQCRTTQSYVRALTMDSKKRIGWRFIRIDTSCVCTLTIKRGR
Kd (Slitrk5): ~0.9 nM

B2: HA-tagged Slitrk5 (WT, full-length) (natural protein, UniProt Q810B7 41-957, looked up)
chain: IDYYGEICDNACPCEEKDGILTVSCENRGIISLSEISPPRFPIYHLLLSGNLLSRLYPNEFVNYTGASILHLGSNVIQDIETGAFHGLRGLRRLHLNNNKLELLRDDTFLGLENLEYLQVDYNYISVIEPNAFGKLHMLQVLILNDNLLSGLPNNLFRFVPLTHLDLRGNRLKLLPYVGLLQHMDKVVELQLEENPWNCSCELISLKDWLDSISYSALVGDVVCETPFRLHGRDLDEVSKQELCPRKLISDYEMRPQTPLSTTGYLHTTPASVNSVATSSSAVYKPPLKPPKGTRQPNKPRVRPTSRQPSKDLGYSNYGPSIAYQTKSPVPLECPTACTCNLQISDLGLNVNCQERKIESIAELQPKPYNPKKMYLTENYITVVRRTDFLEATGLDLLHLGNNRISMIQDRAFGDLGNLRRLYLNGNRIERLSPELFYGLQSLQYLFLQYNLIREIQAGTFDPVPNLQLLFLNNNQLQAMPSGVFSGLTLLRLNLRGNSFTSLPVSGVLDQLTSLIQIDLHDNPWDCTCDVVGMKLWIEQLKVGVLVDEVICKAPKKFAETYMRSIKSELLCPDYSDVVVSTPTPSSIQVPSRTNAATPAVRLNSTGTPAGLGAGTGASSVPLSVLILSLLLVFIMSVFVAAGLFVLVMKRRKKNQSDHTSTNNSDVSSFNMQYSVYGGGGGGGGGHPHAHVHHRGPALPKVKTPAGHVYEYIPHPLGHMCKNPIYRSREGNSVEDYKDLHELKVTYSSNHHLQQQPPPPPQQPQQQPPPQMQMQPGEEERRESHHLRSPAYSVSTIEPREDLLSPVQDADRFYRGILEPDKHCSTTPAGSSLPEYPKFPCSPAAYTFSPNYDLRRPHQYLHPGAGESRLREPVLYSPPGAVFVEPNRNEYLELKAKLNVEPDYLEVLEKQTTFSQF
Kd [1]: ~100 nM
